According to publication PMC12576823:

Molecular target: biotinylated cLDLR-TEV-Fc antigen (cleaved form of the low-density lipoprotein receptor) (UniProt P01130)
Experiment: BLI; Octet RED384, room temperature; 20 nM biotinylated antigen-Fc immobilised on SA biosensor; monomeric Fab as analyte in PBS, 0.05% Tween-20, 0.2% BSA; 2:1 heterogeneous ligand model, global fit

Sequence of UniProt P01130 (P01130 22-788): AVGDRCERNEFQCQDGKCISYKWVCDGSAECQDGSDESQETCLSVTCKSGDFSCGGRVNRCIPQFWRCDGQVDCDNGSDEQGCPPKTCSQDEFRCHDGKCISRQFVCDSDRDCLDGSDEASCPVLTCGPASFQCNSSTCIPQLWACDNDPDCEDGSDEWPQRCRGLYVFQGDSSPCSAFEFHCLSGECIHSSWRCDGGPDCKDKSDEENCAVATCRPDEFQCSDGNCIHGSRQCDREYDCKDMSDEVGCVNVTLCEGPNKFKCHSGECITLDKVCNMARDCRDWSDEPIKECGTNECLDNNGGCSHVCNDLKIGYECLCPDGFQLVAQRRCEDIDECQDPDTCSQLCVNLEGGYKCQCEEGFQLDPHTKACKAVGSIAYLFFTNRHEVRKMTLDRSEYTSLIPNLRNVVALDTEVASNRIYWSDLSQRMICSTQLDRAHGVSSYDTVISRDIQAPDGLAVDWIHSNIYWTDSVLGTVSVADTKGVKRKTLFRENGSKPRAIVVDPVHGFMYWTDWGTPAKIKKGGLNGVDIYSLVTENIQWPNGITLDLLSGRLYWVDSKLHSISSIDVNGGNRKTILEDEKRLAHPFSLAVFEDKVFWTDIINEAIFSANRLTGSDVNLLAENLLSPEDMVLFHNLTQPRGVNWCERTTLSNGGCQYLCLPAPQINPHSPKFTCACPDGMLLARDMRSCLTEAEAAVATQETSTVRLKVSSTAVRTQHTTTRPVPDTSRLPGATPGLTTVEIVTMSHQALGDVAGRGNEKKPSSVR

Row | Kd [nM] | Binder
1 | 16 | 142F6 Fab (anti-LDLR) (Fab, V domains shown) VH: EVQLVESGGGLVQPGGSLRLSCAASGFNFSSSSIHWVRQAPGKGLEWVASIYSSSGYTYYADSVKGRFTISADTSKNTAYLQMNSLRAEDTAVYYCARKWYYGAMDYWGQGTLVTVSS VL: DIQMTQSPSSLSASVGDRVTITCRASQSVSSAVAWYQQKPGKAPKLLIYSASSLYSGVPSRFSGSRSGTDFTLTISSLQPEDFATYYCQQSSTIWTPLTFGQGTKVEIK
2 | 5.8 | 142F1 Fab (anti-LDLR) (Fab, V domains shown) VH: EVQLVESGGGLVQPGGSLRLSCAASGFNVYSSSIHWVRQAPGKGLEWVASISSYYGSTYYADSVKGRFTISADTSKNTAYLQMNSLRAEDTAVYYCARWYGYGYYHPYYFGRSYGFDYWGQGTLVTVSS VL: DIQMTQSPSSLSASVGDRVTITCRASQSVSSAVAWYQQKPGKAPKLLIYSASSLYSGVPSRFSGSRSGTDFTLTISSLQPEDFATYYCQQEWQSLFTFGQGTKVEIK
